Assay results: patent US20200157194A1 (Regeneron, published 2020)
Residue numbers refer to the chain shown, from its start.

T1: recombinant human GREM1 (hGREM1-His; C-terminal 10His tagged, R&D, #5190-GR) (human, UniProt O60565 25-184, limits assumed)
T1 sequence: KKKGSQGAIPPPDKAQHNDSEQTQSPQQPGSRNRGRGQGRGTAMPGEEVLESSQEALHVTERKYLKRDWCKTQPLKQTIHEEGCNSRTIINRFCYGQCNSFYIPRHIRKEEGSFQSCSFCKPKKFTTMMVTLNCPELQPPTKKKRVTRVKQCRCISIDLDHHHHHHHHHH

T2: human GREM1 (hGREM1-His; SEQ ID NO: 595) (human, UniProt O60565 25-184)
T2 construct: also called biotin-hGREM1-His; recombinant human GREM1 protein
T2 sequence: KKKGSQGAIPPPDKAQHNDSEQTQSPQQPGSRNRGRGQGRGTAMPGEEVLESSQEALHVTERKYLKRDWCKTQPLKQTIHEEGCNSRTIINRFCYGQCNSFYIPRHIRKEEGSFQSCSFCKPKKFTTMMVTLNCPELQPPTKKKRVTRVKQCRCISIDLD

B1: H4H6245P (antibody, human IgG4, V domains shown)
VH: EVQLVESGGGLVQPGGSLRLSCAASGFTFNSFWMSWVRQAPGKGLEWVANIKQDGSEKYYVDSVKGRFTISRDNAKNSVYLQMNSLRAEDTAVYYCARDLVTSFDYWGQGTLVTVSS
VL: DIQMTQSPSSLSASVGDRVTITCQASQDINNYLNWYQQKPGKAPKLLIYDASYLETGVPSGFSGSGSGTDFTFTISSLQPEDIATYYCQQYDSLPYTFGQGTKLEIK
notes: H4H prefix = human IgG4 Fc
B2: H4H6250P (antibody, human IgG4, V domains shown)
VH: QVQLVESGGGVVQPGRSLRLSCAASGFTFSNYGMHWVRQAPGKGLEWVAVIWYDGSNKYYADSVKGRFTISRDNSRKTLYLQMNSLRAEDTAIYYCTRDDYGDYDYPFDYWGQGTLVTVSS
VL: DIQMTQSPSSLSASVGDRVTITCRASQGIRNDLGWYQQKPGKAPKRLIYAASSLQSGVPSRFSGTGSGTEFTLTISSLQPEDFATYYCLQHNSYPPFTFGPGTKVDIK
notes: H4H prefix = human IgG4 Fc
B3: H4H6252P (antibody, human IgG4, V domains shown)
VH: B2 VH with K43R, Y53F, R76K, K77N, A88S, I93V
VL: B2 VL with T65S, H91Y, S93T
notes: H4H prefix = human IgG4 Fc; also called H4H6252S
B4: H4H6246P (antibody, human IgG4, V domains shown)
VH: B2 VH with N31S, V50I, K58R, K77N, I93V, T97A, D100E
VL: B2 VL with Y36F, T65S, S93T
notes: H4H prefix = human IgG4 Fc

Legend:
[1] = target: T1, recombinant human GREM1 (hGREM1-His; …); test: cell-based or functional assay
[2] = target: T1, recombinant human GREM1 (hGREM1-His; …); test: cell-based or functional assay; remark: listed apart in the source
[3] = target: T1, recombinant human GREM1 (hGREM1-His; …); test: BLI Octet, mAb captured, 100 nM GREM1;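 note: octet Red96 biolayer interferometry at 25 °C in pH 7.4 HEPES saline buffer, antibodies held on anti-human IgG Fc capture biosensors, then exposed to GREM1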
[4] = target: T1, recombinant human GREM1 (hGREM1-His; …); test: BLI Octet, mAb captured, 100 nM GREM1 + 5 uM heparin;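 note: octet Red96 biolayer interferometry at 25 °C, antibodies captured on anti-human IgG Fc biosensors, pH 7.4 HEPES buffer with 0.1 mg/mL BSA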
Experimental: (§1) Binding measurements were conducted using an Octet Red96 label-free biomolecular interaction instrument (ForteBio). All experiments were performed at 25° C. using plate agitation at 1000 rpm. Solutions were made in an aqueous buffer containing 10 mM HEPES, 150 mM NaCl, 3 mM EDTA 0.05% P20, 0.1 mg/mL BSA and adjusted to pH of 7.4 (HBST buffer).
(§2) Anti-Human IgG Fc Capture biosensors (ForteBio) were separately loaded with 50 μg/mL solutions of 24 different anti-GREM1 antibodies for 60 seconds. Following a 30 second wash, duplicate biosensors for each antibody were submerged into wells containing either 100 nM GREM1 solutions or 100 nM GREM1 solutions containing 5 μM of heparin, measuring association for 300 seconds.

[5] = target: T2, human GREM1 (hGREM1-His; SEQ ID NO: 595); test: SPR, Biacore T200, 25 C, mAb captured, hGREM1-His injected;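 note: Heparin-supplemented HBS-EP+ used as running buffer, association and dissociation phases followed, Kd computed as koff divided by kon and half-life derived from koff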
Experimental: (§3) Kinetic experiments were carried out using HBS-EP+heparin [10 mM HEPES, 150 mM NaCl, 3 mM EDTA, 0.05% (v/v) surfactant P20, 10 μg/ml heparin sodium salt, pH 7.4] as both the running buffer and the sample buffer. […] Antigen-antibody association was monitored for 150 seconds while dissociation in buffer was monitored for 420 seconds. Kinetic analysis was performed using Scrubber software version 2.0a or Biacore T200 evaluation software v1.0 to determine kₐ and kd values. KD and t_{1/2} were then calculated from the experimentally determined kₐ and kd values as KD=kd/kₐ and t_{1/2}=In(2)/kd.

[6] = target: T2, human GREM1 (hGREM1-His; SEQ ID NO: 595); test: SPR, Biacore T200, 37 C, mAb captured, hGREM1-His injected;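 note: HBS-EP running buffer containing heparin, association and dissociation phases tracked, KD computed as koff over kon and half-life derived from koff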
Experimental: as §3

[7] = target: T1, recombinant human GREM1 (hGREM1-His; …); test: BLI Octet, mAb captured, 100 nM GREM1 without vs with 5 uM heparin;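 note: octet Red96 biolayer interferometry at 25 °C, antibodies captured on anti-human IgG Fc biosensors, association of GREM1 measured with versus without heparin in HEPES-buffered saline, pH 7.4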
Experimental: as §1, §2

[8] = target: T2, human GREM1 (hGREM1-His; SEQ ID NO: 595); test: competition ELISA, biotin-hGREM1-His (100 pM) binding to coated hBMP4
Experimental: Data were analyzed using a sigmoidal dose-response model within Prism™ software. […] The absorbance values of the wells containing the highest concentration for each antibody were used to determine the percent maximum blocking.

Binder | IC50 [M], inhibition of hGREM1-His, W-20-17/BRE-luc luciferase (100 pM hBMP4, 10 nM hGREM1-His) [1] [M] | hGREM1-His Inhibition IC50, M; W-20-17 cell differentiation assay (alkaline phosphatase) [2] [nM] | Binding Signal with 30 sec Association [3] [nm] | Binding Signal with 300 sec Association [3] [nm] | Binding Signal with 30 sec Association [4] [nm] | Binding Signal with 300 sec Association [4] [nm] | Kd [5] [nM] | koff [5] [s⁻¹] | kon [5] [M⁻¹ s⁻¹] | t1/2 [5] [min] | Kd [6] [nM] | koff [6] [s⁻¹] | kon [6] [M⁻¹ s⁻¹] | t1/2 [6] [min] | Reduction in Signal from Heparin at 30 sec [7] [nm] | Reduction in Signal from Heparin at 300 sec [7] [nm] | % blocked at maximum Ab tested (20 nM) [8] [%] | IC50 [8] [nM]
B1 | 5.3e-10 | 6.1 | 0.23 | 0.41 | 0.02 | 0.22 | 1.51 | 0.000117 | 77900 | 98 | 2.53 | 0.000262 | 103000 | 44 | 0.21 | 0.19 | 96 | 0.036
B2 | 4.4e-10 | 12 | 0.2 | 0.37 | 0.06 | 0.32 | 3.3 | 0.000297 | 90100 | 39 | 5.93 | 0.000882 | 149000 | 13 | 0.14 | 0.05 | 42 | 0.11
B3 | 8.2e-10 | 6.1 | 0.23 | 0.44 | 0.04 | 0.35 | 1.02 | 7.58e-05 | 74600 | 152 | 4.14 | 0.000459 | 111000 | 25 | 0.19 | 0.09 | 53 | 0.19
B4 | 5.6e-10 | 6.2 | 0.19 | 0.38 | 0.06 | 0.34 | 2.59 | 0.000192 | 73900 | 60 | 3.5 | 0.000444 | 127000 | 26 | 0.13 | 0.04 | 62 | 1.5
